Measurements from paper PMC8939769.

Key:
[1] = target: SARS-CoV-2 S trimer (S2P ectodomain protein) (SARS-CoV-2) (UniProt P0DTC2)
[2] = target: SARS-CoV-2 S trimer (S2P ectodomain protein) (SARS-CoV-2) (UniProt P0DTC2); experiment: not stated; binding kinetics (ka, kd, KD) on the SARS-CoV-2 S trimer (S2P ectodomain protein); representative of at least two independent assays; assay details in the Supplementary materials

For “AZD7442 (combination of AZD8895 and AZD1061)”, the neutralization of the USA-WA1/2020 strain of SARS-CoV-2 in vitro, IC50 [1] was 10 ng/mL and the Kd [2] was 0.0137 nM.
